Reference: patent US20210317200A1 (MABPROTEIN, published 2021)
No end group written: not given here.

T1: peptide K44A (alanine variant of …) (human, not fully specified)
T1 construct: Position is counted on IL-18
T1 peptide: YFGKLESAC

T2: neoepitope peptide (positions 37 to 44, C-terminal Cys) with positions 43 to 44 substituted with alanine (human, not fully specified)
T2 construct: Member of the successive alanine series, derived from the description of the series; Positions are counted on IL-18; also called peptide having the presence of lysine at position 40
T2 peptide: YFGKLEAAC

T3: neoepitope peptide (positions 37 to 44, C-terminal Cys) with positions 42 to 44 substituted with alanine (human, not fully specified)
T3 construct: Member of the successive alanine series, derived from the description of the series; Positions are counted on IL-18; also called peptide having the presence of lysine at position 40
T3 peptide: YFGKLAAAC

T4: neoepitope peptide (positions 37 to 44, C-terminal Cys) with positions 41 to 44 substituted with alanine (human, not fully specified)
T4 construct: Member of the successive alanine series, derived from the description of the series; Positions are counted on IL-18; also called peptide having the presence of lysine at position 40
T4 peptide: YFGKAAAAC

T5: peptide L41A (alanine variant of …) (human, not fully specified)
T5 construct: Position is counted on IL-18
T5 peptide: YFGKAESKC

T6: peptide S43A (alanine variant of …) (human, not fully specified)
T6 construct: Position is counted on IL-18
T6 peptide: YFGKLEAKC

T7: neoepitope peptide (positions 37 to 44, C-terminal Cys) with positions 40 to 44 substituted with alanine (human, not fully specified)
T7 peptide: YFGAAAAAC

T8: peptide Y37A (alanine variant of …) (human, not fully specified)
T8 construct: Position is counted on IL-18
T8 peptide: AFGKLESKC

T9: peptide E42A (alanine variant of …) (human, not fully specified)
T9 construct: Position is counted on IL-18
T9 peptide: YFGKLASKC

T10: neoepitope peptide IL-18^37-44 with C-terminal cysteine (YFGKLESKC) (human, not fully specified)
T10 construct: also called IL-18^37-44 peptide; wild-type peptide
T10 peptide: YFGKLESKC

T11: activated IL-18 protein (IL-18^37-193) (human, UniProt Q14116 37-193)
T11 sequence (looked up): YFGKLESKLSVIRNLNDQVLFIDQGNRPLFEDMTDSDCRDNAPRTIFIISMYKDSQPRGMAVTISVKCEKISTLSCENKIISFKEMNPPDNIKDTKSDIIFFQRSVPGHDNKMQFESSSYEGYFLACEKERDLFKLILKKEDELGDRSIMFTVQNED

T12: peptide G39A (alanine variant of …) (human, not fully specified)
T12 construct: Position is counted on IL-18
T12 peptide: YFAKLESKC

T13: peptide F38A (alanine variant of …) (human, not fully specified)
T13 construct: Position is counted on IL-18
T13 peptide: YAGKLESKC

B1: monoclonal antibody 8-4.1 (antibody, V domains shown)
VH: LSITCTVSGFSLTSYGVHWVRQPPGKGLEWLGVIWAGGSTNYNSALMSRLSISKDNSKSQVFLKMNSLQTDDTAMYYCARESSYDAMDYWGQGTSVTVSS
VL: DIVITQSPKSMSMSVGERVTLTCKASENVVTYVSWYQQKPEQSPKLMIYGASNRYTGVPDRFTGSGSATDFTLTISSVQAEDLADYHCGQGYSYPYTFGGGTKLEIK
B2: monoclonal antibody 9-10.2 (antibody, V domains shown)
VH: SLTCSFSGFSLSSSGMGVGWIRQPSGKGLEWLAHIWWDDDKNYNPGLKSRLTISKDTSKNQVFLKIANVDTADAATYYCTRTRTYSNFGGGMAYWGQGTSVTVSS
VL: LGDQASISCRSSQSIAHSNGYTYLEWYLQTPGQSPKLLIYKVSNRFSGVPDRFSGSGSGTDFTLKISRVEAEDLGVYYCVQGSHVPLTFGAGTKLELK

What was measured:
[1] = biological target: T1, peptide K44A (alanine variant of …); experiment: ELISA on BSA-crosslinked peptide, neoepitope fine analysis; row YFGKLESA
[2] = biological target: peptide K40A (alanine variant of …) (human, C-terminal Cys crosslinked to BSA in ELISA; thiol-coupled to sensor chip CM5 in SPR); experiment: ELISA on BSA-crosslinked peptide, alanine scanning; row YFGALESK
[3] = biological target: T2, neoepitope peptide (positions 37 to 44, …); experiment: ELISA on BSA-crosslinked peptide (neoepitope fine analysis)
[4] = biological target: T3, neoepitope peptide (positions 37 to 44, …); experiment: as above
[5] = biological target: T4, neoepitope peptide (positions 37 to 44, …); experiment: as above
[6] = biological target: T5, peptide L41A (alanine variant of …); experiment: ELISA on BSA-crosslinked peptide, alanine scanning; row YFGKAESK
[7] = biological target: T6, peptide S43A (alanine variant of …); experiment: ELISA on BSA-crosslinked peptide, alanine scanning; row YFGKLEAK
[8] = biological target: T7, neoepitope peptide (positions 37 to 44, …); experiment: ELISA on BSA-crosslinked peptide, neoepitope fine analysis; row YFGAAAAA
[9] = biological target: T8, peptide Y37A (alanine variant of …); experiment: ELISA on BSA-crosslinked peptide, alanine scanning; row AFGKLESK
[10] = biological target: T9, peptide E42A (alanine variant of …); experiment: ELISA on BSA-crosslinked peptide, alanine scanning; row YFGKLASK
[11] = biological target: T3, neoepitope peptide (positions 37 to 44, …); experiment: ELISA on BSA-crosslinked peptide, neoepitope fine analysis; row YFGKLAAA
[12] = biological target: T1, peptide K44A (alanine variant of …); experiment: ELISA on BSA-crosslinked peptide, alanine scanning; row YFGKLESA
[13] = biological target: T10, neoepitope peptide IL-18^37-44 with …; experiment: ELISA on BSA-crosslinked peptide, alanine scanning; row YFGKLESK (reference set as 100)
[14] = biological target: T11, activated IL-18 protein (IL-18^37-193); experiment: cell-based or functional assay
[15] = biological target: T4, neoepitope peptide (positions 37 to 44, …); experiment: ELISA on BSA-crosslinked peptide, neoepitope fine analysis; row YFGKAAAA
[16] = biological target: T2, neoepitope peptide (positions 37 to 44, …); experiment: ELISA on BSA-crosslinked peptide, neoepitope fine analysis; row YFGKLEAA
[17] = biological target: T12, peptide G39A (alanine variant of …); experiment: ELISA on BSA-crosslinked peptide, alanine scanning; row [..]
[18] = biological target: T6, peptide S43A (alanine variant of …); experiment: ELISA on BSA-crosslinked peptide (alanine scanning)
[19] = biological target: T1, peptide K44A (alanine variant of …); experiment: as above
[20] = biological target: T13, peptide F38A (alanine variant of …); experiment: as above
[21] = biological target: T13, peptide F38A (alanine variant of …); experiment: ELISA on BSA-crosslinked peptide, alanine scanning; row YAGKLESK
[22] = biological target: T10, neoepitope peptide IL-18^37-44 with …; experiment: ELISA on BSA-crosslinked peptide, neoepitope fine analysis; row YFGKLESK (reference set as 100)
[23] = biological target: T10, neoepitope peptide IL-18^37-44 with …; experiment: SPR, Biacore X100, peptide thiol-coupled to CM5, antibody 0.4-250 nM, single-cycle, bivalent analysis

Binder | ELISA absorbance relative to wild-type peptide (= 100) [1] | ELISA absorbance relative to wild-type peptide (= 100) [2] | reactivity relative to the wild-type peptide [3] | reactivity relative to the wild-type peptide [4] | reactivity relative to the wild-type peptide [5] | ELISA absorbance relative to wild-type peptide (= 100) [6] | ELISA absorbance relative to wild-type peptide (= 100) [7] | ELISA absorbance relative to wild-type peptide (= 100) [8] | ELISA absorbance relative to wild-type peptide (= 100) [9] | ELISA absorbance relative to wild-type peptide (= 100) [10] | ELISA absorbance relative to wild-type peptide (= 100) [11] | ELISA absorbance relative to wild-type peptide (= 100) [12] | ELISA absorbance relative to wild-type peptide (= 100) [13] | ELISA absorbance relative to wild-type peptide (= 100) [15] | ELISA absorbance relative to wild-type peptide (= 100) [16] | ELISA absorbance relative to wild-type peptide (= 100) [17] | percent binding relative to the wild-type peptide [18] | percent binding relative to the wild-type peptide [19] | percent binding relative to the wild-type peptide [20] | ELISA absorbance relative to wild-type peptide (= 100) [21] | other results
B1 | 27 | 1.8 | ~0.25 fraction of wild-type peptide | ~0.25 fraction of wild-type peptide | ~0.25 fraction of wild-type peptide | 33 | 55 | 6 | 0.8 | 34 | 23 | 67 | 100 | 27 | 56 | 3.2 | ~50% | ~50% | ~50% | 44 | IC50 (read off the curve) [14]: ~0.6 µg; ELISA absorbance relative to wild-type peptide (= 100) [22]: 100
B2 | 44 | 2.6 | ~0.25 fraction of wild-type peptide | ~0.25 fraction of wild-type peptide | ~0.25 fraction of wild-type peptide | 14 | 45 | 5 | 0.3 | 20 | 13 | 39 | 100 | 26 | 27 | 2.5 | ~50% | ~50% | ~50% | 50 | Kd [23]: 0.19 nM; kon [23]: 210000 M⁻¹ s⁻¹; ELISA absorbance relative to wild-type peptide (= 100) [22]: 100
